Laboratory results taken from patent US20160369268.

Tests used:
Experiment in all cases: cell_activity
[1] = test system: TALETRE#3-KRAB (synthetic (Xanthomonas TALE)); conditions: 50 ng, against TALETRE#4-VP16-induced AmCyan
[2] = test system: TALECMV-KRAB (synthetic (Xanthomonas TALE)); conditions: 100 ng, CMV-mKate-PEST in HEK293; only 19% on TRE/CMVmin AmCyan at 50 ng
[3] = test system: TALETRE#4-KRAB (synthetic (Xanthomonas TALE)); conditions: 50 ng, against TALETRE#4-VP16-induced AmCyan

CCCTATCAGTGAT (double strand) [TRE target of TALETRE#3]
activity [1]: 84 % repression

CTATATAAGCAGAGCT (double strand) [CMV TATA box region target]
activity [2]: 93 % repression

ATCAGTGATAGAGAAC (double strand) [TRE target of TALETRE#4]
activity [3]: 80 % repression
